From patent US20040204348A1 (ANGSTROM PHARMACEUTICALS, published 2004)
Bridges are numbered along the chain shown (N, C = ends). L10 (R1 : -NH-m-phenylene-NH2) = linker L10: -CO-CH2-NH-CO-CH2-CH2-CH(CO-NH-CH2-COR1)-NH- with R1 = -NH-m-phenylene-NH2; L10 (R1 : -NH-o-phenylene-NH2) = linker L10: -CO-CH2-NH-CO-CH2-CH2-CH(CO-NH-CH2-COR1)-NH- with R1 = -NH-o-phenylene-NH2; L10 (R1 : -NH-p-phenylene-NH2) = linker L10: -CO-CH2-NH-CO-CH2-CH2-CH(CO-NH-CH2-COR1)-NH- with R1 = -NH-p-phenylene-NH2; L15 (R1 : phenyl) = linker L15: -CO-CH2-NH-CO-CH2-CH2-CH(CO-NH-CH2-CO-NH-R1)-NH- with R1 = phenyl (anilide)

What follows are binders tested against T1, uPAR expressed on cells (RKO human colon carcinoma cells, HeLa cells, stimulated HUVEC) (human, UniProt Q03405 23-305) (assay: whole-cell competition with [125I]DFP-uPA on HeLa cells, as the method is described; competition for binding to HeLa cells, not BIAcor).
T1 construct: whole, on cells; GPI-anchored receptor on whole cells
T1 sequence (Q03405 23-305): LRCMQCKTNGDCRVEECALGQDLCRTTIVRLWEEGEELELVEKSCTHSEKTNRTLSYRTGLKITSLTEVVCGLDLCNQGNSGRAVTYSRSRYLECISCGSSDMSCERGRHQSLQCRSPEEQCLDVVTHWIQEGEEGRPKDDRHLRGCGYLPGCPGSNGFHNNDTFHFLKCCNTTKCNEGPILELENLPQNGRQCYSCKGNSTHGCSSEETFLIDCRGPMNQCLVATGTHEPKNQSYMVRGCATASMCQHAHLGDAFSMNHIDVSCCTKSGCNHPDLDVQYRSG
Protocol: HeLa cells (about 5×10⁴/well) were plated in medium MEM with Earle's salts/10% FBS+antibiotics) in 24-well plates, then incubated in a humid 5% CO₂ atmosphere until the cells reached 70% confluence. Catalytically inactivated high molecular weight uPA (DFP-uPA) labeled with radioactive ¹²⁵I (specific activity 250,000 cpm/mg) served as the uPAR label. Plates in which the cells were incubated were chilled on ice and the cells were washed twice (5 minutes each) with cold PBS/0.05% Tween-80. DFP-UPA and Å36 were serially diluted in cold PBS/0.1% BSA/0.01% Tween-80 and added to each well to a final volume of 0.3 mL 10 minutes prior to the addition of [¹²⁵I]DFP-UPA. Each well then received 9500 cpm of [¹²⁵I]DFP-UPA at a final concentration of 0.2 nM). The plates were incubated at 4° C. for 2 hrs, after which the cells are washed 3× (5 minutes each) with cold PBS/0.05% Tween-80. Cells were lysed by addition of NaOH (1N) 0.5 mL/well for 5 minutes at room temperature or until all the cells in each well were lysed by microscopic examination. The contents of each well were aspirated, and the total counts in each well were determined using a gamma counter. Each compound was tested in triplicate and the results were expressed as a percentage of the total radioactivity measured in wells containing [¹²⁵I]DFP-uPA alone, which is taken to represent maximum (100%) binding.

Kd	Binder
30 nM	VSNKYFSNIHW (linker N-C via L15 (R1 : phenyl); also: cyclised by linker L15 between X1 N and X11 carbonyl, also called A36; cyclic peptide Å36) [Å36]

The binders below were run against T1, uPAR expressed on cells (RKO human …) (assay: competition with 0.2 nM [125I]DFP-uPA on RKO cells, 4 C).
Protocol: The compounds of the invention were tested for their binding to uPAR by measuring their ability to inhibit the binding of [¹²⁵I]DFP-uPA (catalytically inactivated high molecular weight uPA) to uPAR expressed by RKO (human colon carcinoma) cells. Cells (about 5×10⁴/well) were plated (in MEM with Earle's salts/10% FBS+antibiotics) in 24-well plates, then incubated in a humid 5% CO₂ atmosphere until the cells reach 70% confluence. Catalytically inactivated high molecular weight uPA (DFP-uPA) was radioiodinated using Iodo-gen® (Pierce) to a specific activity of about 250,000 cpm/mg. The cell-containing plates were then chilled on ice and the cells were washed twice (5 minutes each) with cold PBS/0.05% Tween-80. Test compounds were serially diluted in cold PBS/0.1% BSA/0.01% Tween-80 and added to each well to a final volume of 0.3 mL 10 minutes prior to the addition of the [¹²⁵I]DFP-uPA. Each well then receives 9500 cpm of [¹²⁵I]DFP-uPA at a final concentration of 0.2 nM. The plates were incubated at 4° C. for 2 hrs, after which time the cells were washed 3× (5 minutes each) with cold PBS/0.05% Tween-80. NaOH (1N; 0.5 mL) was added to each well to lyse the cells, the contents of each well were aspirated and the total counts in each well determined using a gamma counter. Each compound was tested in triplicate and the results are expressed as a percentage of the total radioactivity measured in wells containing [¹²⁵I]DFP-uPA alone, which is taken to represent maximum (100%) binding.
RTLPPD inhibited the binding of [¹²⁵I]DFP-uPA with an IC₅₀ of approximately 5 nM (FIG. 3). Modification of RTLPPD with Oregon Green shifted the IC₅₀ to approximately 800 nM (FIG. 3) and modification with biotin shifted the IC₅₀ to approximately 1.1 μM (FIG. 4). RTLMPD and RTLOPD inhibited the binding of [¹²⁵I]DFP-uPA to RKO cells with an IC₅₀ of approximately 50 and 100 nM , respectively (FIG. 3).

IC50	Binder
~50 nM	VSNKYFSNIHW (linker N-C via L10 (R1 : -NH-m-phenylene-NH2); also: cyclised by linker L10 between X1 N and X11 carbonyl, also called isomer of RTLPPD incorporating m-phenylenediamine (MPD)) [RTLMPD]
~100 nM	VSNKYFSNIHW (linker N-C via L10 (R1 : -NH-o-phenylene-NH2); also: cyclised by linker L10 between X1 N and X11 carbonyl, also called isomer of RTLPPD incorporating o-phenylenediamine (OPD)) [RTLOPD]
~5 nM	VSNKYFSNIHW (linker N-C via L10 (R1 : -NH-p-phenylene-NH2); also: cyclised by linker L10 between X1 N and X11 carbonyl) [receptor targeting ligand-p-phenylenediamine derivative (RTLPPD)]
~1100 nM	VSNKYFSNIHW (linker N-C via L10 (R1 : -NH-p-phenylene-NH2); also: biotin-X (7-atom spacer) label, site not given here, RTLPPD reacted with Biotin-X-sulfoNHS) [biotin-modified-RTLPPD]
~800 nM	VSNKYFSNIHW (linker N-C via L10 (R1 : -NH-p-phenylene-NH2); also: Oregon Green (5/6-isomer mix) label, site not certain (intended on phenylenediamine amine), RTLPPD reacted with Oregon Green isothiocyanate; also called Oregon Green-labeled-RTLPPD) [Oregon Green-modified-RTLPPD]
